Sequences and labels used below:
B1: M197-A01 (Fab, V domains shown)
VH: EVQLLESGGGLVQPGGSLRLSCAASGFTFSIYDMIWVRQAPGKGLEWVSSIYPSGGNTSYADSVKGRFTISRDNSKNTLYLQMNSLRAEDTAVYYCAYRRTGIPRRDAFDIWGQGTMVTVSS
VL: DIQMTQSPSTLSASVGDRVTITCRASQSISSWLAWYQQKPGKAPNLLIYKASTLESGVPSRFSGSGSGTEFTLTISSLQPDDFATYYCQQYNTYWTFGQGTKVEIK
B2: M198-E09 (Fab, V domains shown)
VH: EVQLLESGGGLVQPGGSLRLSCAASGFTFSIYDMNWVRQAPGKGLEWVSSIYPSGGRTRYADSVKGRFTISRDNSKNTLYLQMNSLRAEDTAVYYCAYRRTGIPRRDAFDIWGQGTMVTVSS
VL: DIQMTQSPSTLSASVGDRVTITCRASQSISSWLAWYQQKPGKAPNLLIYKASTLESGVPSRFSGSGSGTEFTLTISSLQPDDFATYYCQQYNTYWTFGQGTKVEIK
B3: M197-F03 (Fab, V domains shown)
VH: EVQLLESGGGLVQPGGSLRLSCAASGFTFSIYSMFWVRQAPGKGLEWVSSIGPSGGVTHYADSVKGRFTISRDNSKNTLYLQMNSLRAEDTAVYYCAYRRTGIPRRDAFDIWGQGTMVTVSS
VL: DIQMTQSPSTLSASVGDRVTITCRASQSISSWLAWYQQKPGKAPNLLIYKASTLESGVPSRFSGSGSGTEFTLTISSLQPDDFATYYCQQYNTYWTFGQGTKVEIK
B4: M198-E11 (Fab, V domains shown)
VH: EVQLLESGGGLVQPGGSLRLSCAASGFTFSTYSMYWVRQAPGKGLEWVSSIYPSGGLTWYADSVKGRFTISRDNSKNTLYLQMNSLRAEDTAVYYCAYRRTGIPRRDAFDIWGQGTMVTVSS
VL: DIQMTQSPSTLSASVGDRVTITCRASQSISSWLAWYQQKPGKAPNLLIYKASTLESGVPSRFSGSGSGTEFTLTISSLQPDDFATYYCQQYNTYWTFGQGTKVEIK
B5: M198-E02 (Fab, V domains shown)
VH: EVQLLESGGGLVQPGGSLRLSCAASGFTFSIYSMYWVRQAPGKGLEWVSYIRPSGGNTKYADSVKGRFTISRDNSKNTLYLQMNSLRAEDTAVYYCAYRRTGIPRRDAFDIWGQGTMVTVSS
VL: DIQMTQSPSTLSASVGDRVTITCRASQSISSWLAWYQQKPGKAPNLLIYKASTLESGVPSRFSGSGSGTEFTLTISSLQPDDFATYYCQQYNTYWTFGQGTKVEIK
B6: M197-F01 (Fab, V domains shown)
VH: EVQLLESGGGLVQPGGSLRLSCAASGFTFSIYHMYWVRQAPGKGLEWVSSIGPSGGPTGYADSVKGRFTISRDNSKNTLYLQMNSLRAEDTAVYYCAYRRTGIPRRDAFDIWGQGTMVTVSS
VL: DIQMTQSPSTLSASVGDRVTITCRASQSISSWLAWYQQKPGKAPNLLIYKASTLESGVPSRFSGSGSGTEFTLTISSLQPDDFATYYCQQYNTYWTFGQGTKVEIK
B7: M198-F08 (Fab, V domains shown)
VH: EVQLLESGGGLVQPGGSLRLSCAASGFTFSVYSMWWVRQAPGKGLEWVSSISSSGGMTEYADSVKGRFTISRDNSKNTLYLQMNSLRAEDTAVYYCAYRRTGIPRRDAFDIWGQGTMVTVSS
VL: DIQMTQSPSTLSASVGDRVTITCRASQSISSWLAWYQQKPGKAPNLLIYKASTLESGVPSRFSGSGSGTEFTLTISSLQPDDFATYYCQQYNTYWTFGQGTKVEIK
B8: M198-G07 (Fab, V domains shown)
VH: EVQLLESGGGLVQPGGSLRLSCAASGFTFSIYDMTWVRQAPGKGLEWVSSIYPSGGQTIYADSVKGRFTISRDNSKNTLYLQMNSLRAEDTAVYYCAYRRTGIPRRDAFDIWGQGTMVTVSS
VL: DIQMTQSPSTLSASVGDRVTITCRASQSISSWLAWYQQKPGKAPNLLIYKASTLESGVPSRFSGSGSGTEFTLTISSLQPDDFATYYCQQYNTYWTFGQGTKVEIK
B9: M195-D12 (Fab, V domains shown)
VH: EVQLLESGGGLVQPGGSLRLSCAASGFTFSIYGMFWVRQAPGKGLEWVSGIGPSGGPTKYADSVKGRFTISRDNSKNTLYLQMNSLRAEDTAVYYCAYRRTGIPRRDAFDIWGQGTMVTVSS
VL: DIQMTQSPSTLSASVGDRVTITCRASQSISSWLAWYQQKPGKAPNLLIYKASTLESGVPSRFSGSGSGTEFTLTISSLQPDDFATYYCQQYNTYWTFGQGTKVEIK
B10: M198-H08 (Fab, V domains shown)
VH: EVQLLESGGGLVQPGGSLRLSCAASGFTFSIYDMYWVRQAPGKGLEWVSSIGPSGGPTAYADSVKGRFTISRDNSKNTLYLQMNSLRAEDTAVYYCAYRRTGIPRRDAFDIWGQGTMVTVSS
VL: DIQMTQSPSTLSASVGDRVTITCRASQSISSWLAWYQQKPGKAPNLLIYKASTLESGVPSRFSGSGSGTEFTLTISSLQPDDFATYYCQQYNTYWTFGQGTKVEIK
B11: M197-H10 (Fab, V domains shown)
VH: EVQLLESGGGLVQPGGSLRLSCAASGFTFSSYNMHWVRQAPGKGLEWVSSIVPSGGKTNYADSVKGRFTISRDNSKNTLYLQMNSLRAEDTAVYYCAYRRTGIPRRDAFDIWGQGTMVTVSS
VL: DIQMTQSPSTLSASVGDRVTITCRASQSISSWLAWYQQKPGKAPNLLIYKASTLESGVPSRFSGSGSGTEFTLTISSLQPDDFATYYCQQYNTYWTFGQGTKVEIK
B12: M202-G03 (Fab, V domains shown)
VH: EVQLLESGGGLVQPGGSLRLSCAASGFTFSHYIMMWVRQAPGKGLEWVSGIYSSGGITVYADSVKGRFTISRDNSKNTLYLQMNSLRAEDTAVYYCAFRRTGVPRRDSFEIWGQGTMVTVSS
VL: DIQMTQSPSTLSASVGDRVTITCRASQSISSWLAWYQQKPGKAPNLLIYKASTLESGVPSRFSGSGSGTEFTLTISSLQPDDFATYYCQQYNTYWTFGQGTKVEIK
B13: M198-B09 (Fab, V domains shown)
VH: EVQLLESGGGLVQPGGSLRLSCAASGFTFSVYSMTWVRQAPGKGLEWVSSIGSSGGSTTYADSVKGRFTISRDNSKNTLYLQMNSLRAEDTAVYYCAYRRTGIPRRDAFDIWGQGTMVTVSS
VL: DIQMTQSPSTLSASVGDRVTITCRASQSISSWLAWYQQKPGKAPNLLIYKASTLESGVPSRFSGSGSGTEFTLTISSLQPDDFATYYCQQYNTYWTFGQGTKVEIK
B14: M197-H11 (Fab, V domains shown)
VH: EVQLLESGGGLVQPGGSLRLSCAASGFTFSIYNMIWVRQAPGKGLEWVSSIYPSGGWTTYADSVKGRFTISRDNSKNTLYLQMNSLRAEDTAVYYCAYRRTGIPRRDAFDIWGQGTMVTVSS
VL: DIQMTQSPSTLSASVGDRVTITCRASQSISSWLAWYQQKPGKAPNLLIYKASTLESGVPSRFSGSGSGTEFTLTISSLQPDDFATYYCQQYNTYWTFGQGTKVEIK
B15: M202-A01 (Fab, V domains shown)
VH: EVQLLESGGGLVQPGGSLRLSCAASGFTFSHYIMMWVRQAPGKGLEWVSGIYSSGGITVYADSVKGRFTISRDNSKNTLYLQMNSLRAEDTAVYYCAYRRIGVPRRDAFDIWGQGTMVTVSS
VL: DIQMTQSPSTLSASVGDRVTITCRASQSISSWLAWYQQKPGKAPNLLIYKASTLESGVPSRFSGSGSGTEFTLTISSLQPDDFATYYCQQYNTYWTFGQGTKVEIK
B16: M202-E06 (Fab, V domains shown)
VH: EVQLLESGGGLVQPGGSLRLSCAASGFTFSHYIMMWVRQAPGKGLEWVSGIYSSGGITVYADSVKGRFTISRDNSKNTLYLQMNSLRAEDTAVYYCAYRRRGVPRRDDFDIWGQGTMVTVSS
VL: DIQMTQSPSTLSASVGDRVTITCRASQSISSWLAWYQQKPGKAPNLLIYKASTLESGVPSRFSGSGSGTEFTLTISSLQPDDFATYYCQQYNTYWTFGQGTKVEIK
B17: M198-F04 (Fab, V domains shown)
VH: EVQLLESGGGLVQPGGSLRLSCAASGFTFSIYDMWWVRQAPGKGLEWVSSIRPSGGITKYADSVKGRFTISRDNSKNTLYLQMNSLRAEDTAVYYCAYRRTGIPRRDAFDIWGQGTMVTVSS
VL: DIQMTQSPSTLSASVGDRVTITCRASQSISSWLAWYQQKPGKAPNLLIYKASTLESGVPSRFSGSGSGTEFTLTISSLQPDDFATYYCQQYNTYWTFGQGTKVEIK
B18: M197-A08 (Fab, V domains shown)
VH: EVQLLESGGGLVQPGGSLRLSCAASGFTFSIYSMQWVRQAPGKGLEWVSSIGSSGGKTLYADSVKGRFTISRDNSKNTLYLQMNSLRAEDTAVYYCAYRRTGIPRRDAFDIWGQGTMVTVSS
VL: DIQMTQSPSTLSASVGDRVTITCRASQSISSWLAWYQQKPGKAPNLLIYKASTLESGVPSRFSGSGSGTEFTLTISSLQPDDFATYYCQQYNTYWTFGQGTKVEIK
B19: M197-E12 (Fab, V domains shown)
VH: EVQLLESGGGLVQPGGSLRLSCAASGFTFSTYTMRWVRQAPGKGLEWVSSIYPSGGKTQYADSVKGRFTISRDNSKNTLYLQMNSLRAEDTAVYYCAYRRTGIPRRDAFDIWGQGTMVTVSS
VL: DIQMTQSPSTLSASVGDRVTITCRASQSISSWLAWYQQKPGKAPNLLIYKASTLESGVPSRFSGSGSGTEFTLTISSLQPDDFATYYCQQYNTYWTFGQGTKVEIK
B20: M198-C10 (Fab, V domains shown)
VH: EVQLLESGGGLVQPGGSLRLSCAASGFTFSHYMGMNWVRQAPGKGLEWVSSIVPSGGWTQYADSVKGRFTISRDNSKNTLYLQMNSLRAEDTAVYYCAYRRTGIPRRDAFDIWGQGTMVTVSS
VL: DIQMTQSPSTLSASVGDRVTITCRASQSISSWLAWYQQKPGKAPNLLIYKASTLESGVPSRFSGSGSGTEFTLTISSLQPDDFATYYCQQYNTYWTFGQGTKVEIK
B21: M198-A02 (Fab, V domains shown)
VH: EVQLLESGGGLVQPGGSLRLSCAASGFTFSRYSMIWVRQAPGKGLEWVSSIWSSGGATEYADSVKGRFTISRDNSKNTLYLQMNSLRAEDTAVYYCAYRRTGIPRRDAFDIWGQGTMVTVSS
VL: DIQMTQSPSTLSASVGDRVTITCRASQSISSWLAWYQQKPGKAPNLLIYKASTLESGVPSRFSGSGSGTEFTLTISSLQPDDFATYYCQQYNTYWTFGQGTKVEIK

The target of this test is human plasma kallikrein (human, UniProt P03952 20-390; P03952 391-638). Put plainly: cell-based or functional assay.
Chain of human plasma kallikrein (P03952 20-390, chain 1 of 2): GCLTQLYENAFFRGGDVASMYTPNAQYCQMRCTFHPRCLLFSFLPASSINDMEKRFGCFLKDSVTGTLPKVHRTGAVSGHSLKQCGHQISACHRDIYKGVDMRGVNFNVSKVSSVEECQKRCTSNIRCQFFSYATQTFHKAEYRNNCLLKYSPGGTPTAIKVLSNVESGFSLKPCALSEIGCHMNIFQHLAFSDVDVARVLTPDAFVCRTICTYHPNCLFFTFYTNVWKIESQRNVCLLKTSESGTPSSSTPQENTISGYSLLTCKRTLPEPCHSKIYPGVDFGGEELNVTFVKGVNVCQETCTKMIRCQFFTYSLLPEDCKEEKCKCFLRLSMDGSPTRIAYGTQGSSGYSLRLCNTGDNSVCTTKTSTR
Chain of human plasma kallikrein (P03952 391-638, chain 2 of 2): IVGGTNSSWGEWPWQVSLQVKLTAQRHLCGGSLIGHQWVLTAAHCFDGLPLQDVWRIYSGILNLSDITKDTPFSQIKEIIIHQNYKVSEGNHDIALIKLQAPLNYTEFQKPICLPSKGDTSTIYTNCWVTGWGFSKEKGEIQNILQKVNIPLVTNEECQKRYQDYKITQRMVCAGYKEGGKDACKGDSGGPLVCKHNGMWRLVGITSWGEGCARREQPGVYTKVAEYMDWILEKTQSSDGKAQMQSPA
By % inhibition is commonly meant the percentage by which the read-out fell short of the control. A higher % inhibition goes with a response far below the control. As for B1, the “% inhibition at 10 nM” value came out at 95.3%.
As for B2, the figure is 93.1%; as for B3, 90.7%; as for B4, 92.5%.
As to B5, the “% inhibition at 10 nM” value was 90.3%.
With B6, the “% inhibition at 10 nM” value turned out to be 92.6%.
The same measure for B7: 91.8%; for B8: 94.9%.
As for B9, the figure is 90.8%; as for B10, 92.3%; as for B11, 94.1%.
As for B12, the figure is 88.3%; as for B13, 93.5%.
Consider B14, for which the “% inhibition at 10 nM” value stood at 92.9%.
As for B15, the figure is 88.9%.
As for B16, the figure is 91.5%.
As for B17, the figure is 92.9%; as for B18, 93.7%; as for B19, 93%.
For the molecule B20, the “% inhibition at 10 nM” value is 93%.
As for B21, the figure is 89.1%.

For the origin of these results see patent US9266964.
